Laboratory results: US7419813B2, “Fructosyl peptide oxidase” (Kikkoman Corporation, priority 2001, dated 2008)

Tests used:
[1] = Identifying reaction product by HPLC (TSK gel Amide-80); type: biochemical; conditions: 2 mM fructosyl valyl histidine, 0.003U oxidase, 37° C. for 2 hours
Procedure: (§1) Reaction solution was assayed by HPLC to identify reaction products. First, 50 μl of reaction solution (2 mM fructosyl valyl histidine, 5 mM phosphate buffer (pH 8.0), 0.003U of the inventive oxidase) was incubated at 37° C. for 2 hours, diluted (10×) and then assayed for the reaction products in a TSK gel Amide-80 column (available from Tosoh Co., Ltd.). As a control, the same procedure was repeated except for using a buffer instead of the enzyme.
as §1, with “Similarly,” for “As”, “control sample” for “control, the same procedure”, “obtained by” for “repeated except for”, “enzyme and assayed.” for “enzyme.”

[2] = Km value for fructosyl valyl histidine (Lineweaver-Burk plot); type: biochemical; conditions: purified oxidase
Procedure: In the above-described activity assay, the activity of the oxidase was monitored using different concentrations of fructosyl valyl histidine (substrate), and Michaelis constant (Km) was determined from a Lineweaver-Burk plot.
In the above-described activity assay, activity was monitored using different concentrations of fructosyl valyl histidine (substrate), and Michaelis constant (Km) was determined from a Lineweaver-Burk plot.

B1: Eupenicillium terrenum ATCC 18547: fructosyl peptide oxidase produced by Eupenicillium terrenum ATCC 18547 with less action on ε-fructosyl lysine; amino acid sequence SEQ ID NO: 3 (protein, listed as Eupenicillium terrenum)
chain: MAHSRASTKVVVVGGGGTIGSSTALHLIRSGYTPSNITVLDVYKTPSLQSAGHDLNKIMGIRLRNGPDLQLSLESLDMWQNDELFKPFFHQVGMIDCSSSKEGIENLRRKYQTLLDAGIGLEKTNVWLESEDEILAKAPNFTREQVKGWKGLFCTDGGWLAAAKAINAIGIFLQDKGVKFGFGGAGTFQQPLFAADGKTCIGLETTDGTKYFADKVVLAAGAWSPTLVDLEDQCVSKAWVFAHIQLTPKEADAYKNVPVVYDGEYGFFFEPNEYGVIKVCDEFPGFSRFKLHQPYGAASPKMISVPRSHAKHPTDTYPDASEVTIRKAIARFLPEFKDKELFNRTMCWCTDTADANLLICEHPKWKNFILATGDSGHSFKLLPNIGKHVVELLEGSLSQEMAGAWRWRPGGDALRSRRGAPAKDLAEMPGWKHDAHL
In the case of B1, the “reaction product identified by HPLC” value [1] is reported as “a peak was detected only for valyl histidine” and the Km [2] is reported as 4.25 mM.
